# Assay results: patent US20250263462A1 (US Dept. of Health and Human Services, published 2025)
# B1: TRAV12N-3*01/BV4*01 murine anti-KRAS G12D TCR (SEQ ID NOs: 11 and 12) (TCR, V domains shown)
# V domain 1: GDSVTQTEGLVTLTEGLPVMLNCTYQTIYSNPFLFWYVQHLNESPRLLLKSFTDNKRTEHQGFHATLHKSSSSFHLQKSSAQLSDSALYYCALRGNAGAKLTFGGGTRLTVRP
# V domain 2: ETAVFQTPNYHVTQVGNEVSFNCKQTLGHDTMYWYKQDSKKLLKIMFSYNNKQLIVNETVPRRFSPQSSDKAHLNLRIKSVEPEDSAVYLCASSSRDWSAETLYFGSGTRLTVLE
# What was measured:
# Experiment in all cases: cell-based or functional assay
# [1] = biological target: HLA-A11 on COS7/A11 cells expressing the WT KRAS minigene (23-mer SEQ ID NO: 118) (human, UniProt A*11:01)
# [2] = biological target: HLA-A11 on COS7/A11 cells expressing the KRAS G12D minigene (23-mer SEQ ID NO: 119) (human, UniProt A*11:01)
# [3] = biological target: HLA-A11 on COS7/A11 cells expressing the KRAS G12V minigene (23-mer SEQ ID NO: 120) (human, UniProt A*11:01)
# [4] = biological target: KRAS G12V 10-mer peptide … (SEQ ID NO: 33) presented by HLA-A11 on pulsed cells (human, UniProt A*11:01)
# [5] = biological target: T1, WT KRAS 10-mer peptide (SEQ ID NO: 30) presented by HLA-A11 on pulsed cells (human, UniProt A*11:01)
# [6] = biological target: T2, KRAS G12D 9-mer peptide KRAS8-16 … (SEQ ID NO: 34) presented by HLA-A11 on pulsed cells (human, UniProt A*11:01)
# [7] = biological target: KRAS G12D 9-mer peptide KRAS7-15 … (SEQ ID NO: 124) presented by HLA-A11 on pulsed cells (human, UniProt A*11:01)
# [8] = biological target: T1, WT KRAS 10-mer peptide (SEQ ID NO: 30) …; remark: listed apart in the source
# [9] = biological target: T2, KRAS G12D 9-mer peptide KRAS8-16 … (SEQ …); remark: listed apart in the source
# [10] = biological target: WT KRAS 9-mer peptide (SEQ ID NO: 31) presented by HLA-A11 on pulsed cells (human, UniProt A*11:01)
binder,measurement,setting,value
B1,"IFN-γ, PBL + COS/A11 minigene transfectant",[1],130 pg/mL
same,"IFN-γ, PBL + COS/A11 minigene transfectant",[2],> 10000 pg/mL
same,"IFN-γ, PBL + COS/A11 minigene transfectant",[3],126 pg/mL
same,"IFN-γ, PBL + COS7/A11 pulsed at 1 × 10^-6 M",[4],97 pg/mL
same,"IFN-γ, PBL + COS7/A11 pulsed at 1 × 10^-7 M",[4],83 pg/mL
same,"IFN-γ, PBL + COS7/A11 pulsed at 1 × 10^-8 M",[4],86 pg/mL
same,"IFN-γ, PBL + COS7/A11 pulsed at 1 × 10^-9 M",[4],88 pg/mL
same,"IFN-γ, PBL + COS7/A11 pulsed at 1 × 10^-10 M",[4],88 pg/mL
same,"IFN-γ, PBL + COS7/A11 pulsed at 1 × 10^-11 M",[4],86 pg/mL
same,"IFN-γ, PBL + COS7/A11 pulsed at 1 × 10^-12 M",[4],96 pg/mL
same,"IFN-γ, PBL + COS7/A11 pulsed at 1 × 10^-13 M",[4],97 pg/mL
same,"IFN-γ, PBL + COS7/A11 pulsed at 1 × 10^-6 M",[5],78 pg/mL
same,"IFN-γ, PBL + COS7/A11 pulsed at 1 × 10^-7 M",[5],88 pg/mL
same,"IFN-γ, PBL + COS7/A11 pulsed at 1 × 10^-8 M",[5],102 pg/mL
same,"IFN-γ, PBL + COS7/A11 pulsed at 1 × 10^-9 M",[5],99 pg/mL
same,"IFN-γ, PBL + COS7/A11 pulsed at 1 × 10^-10 M",[5],95 pg/mL
same,"IFN-γ, PBL + COS7/A11 pulsed at 1 × 10^-11 M",[5],86 pg/mL
same,"IFN-γ, PBL + COS7/A11 pulsed at 1 × 10^-12 M",[5],102 pg/mL
same,"IFN-γ, PBL + COS7/A11 pulsed at 1 × 10^-13 M",[5],98 pg/mL
same,"IFN-γ, PBL + COS7/A11 pulsed at 1 × 10^-6 M",[6],136 pg/mL
same,"IFN-γ, PBL + COS7/A11 pulsed at 1 × 10^-7 M",[6],95 pg/mL
same,"IFN-γ, PBL + COS7/A11 pulsed at 1 × 10^-8 M",[6],99 pg/mL
same,"IFN-γ, PBL + COS7/A11 pulsed at 1 × 10^-9 M",[6],90 pg/mL
same,"IFN-γ, PBL + COS7/A11 pulsed at 1 × 10^-10 M",[6],85 pg/mL
same,"IFN-γ, PBL + COS7/A11 pulsed at 1 × 10^-11 M",[6],85 pg/mL
same,"IFN-γ, PBL + COS7/A11 pulsed at 1 × 10^-12 M",[6],94 pg/mL
same,"IFN-γ, PBL + COS7/A11 pulsed at 1 × 10^-13 M",[6],115 pg/mL
same,"IFN-γ, PBL + COS7/A11 pulsed at 1 × 10^-6 M",[7],87 pg/mL
same,"IFN-γ, PBL + COS7/A11 pulsed at 1 × 10^-7 M",[7],91 pg/mL
same,"IFN-γ, PBL + COS7/A11 pulsed at 1 × 10^-8 M",[7],72 pg/mL
same,"IFN-γ, PBL + COS7/A11 pulsed at 1 × 10^-9 M",[7],90 pg/mL
same,"IFN-γ, PBL + COS7/A11 pulsed at 1 × 10^-10 M",[7],90 pg/mL
same,"IFN-γ, PBL + COS7/A11 pulsed at 1 × 10^-11 M",[7],95 pg/mL
same,"IFN-γ, PBL + COS7/A11 pulsed at 1 × 10^-12 M",[7],83 pg/mL
same,"IFN-γ, PBL + COS7/A11 pulsed at 1 × 10^-13 M",[7],112 pg/mL
same,"IFN-γ, PBL + Cos7/A11 pulsed at 10^-6 M",[8],82 pg/mL
same,"IFN-γ, PBL + Cos7/A11 pulsed at 10^-7 M",[8],77 pg/mL
same,"IFN-γ, PBL + Cos7/A11 pulsed at 10^-8 M",[8],85 pg/mL
same,"IFN-γ, PBL + Cos7/A11 pulsed at 10^-9 M",[8],102 pg/mL
same,"IFN-γ, PBL + Cos7/A11 pulsed at 10^-10 M",[8],88 pg/mL
same,"IFN-γ, PBL + Cos7/A11 pulsed at 10^-11 M",[8],81 pg/mL
same,"IFN-γ, PBL + Cos7/A11 pulsed at 10^-12 M",[8],76 pg/mL
same,"IFN-γ, PBL + Cos7/A11 pulsed at 10^-13 M",[8],92 pg/mL
same,"IFN-γ, PBL + Cos7/A11 pulsed at 10^-6 M",[9],125 pg/mL
same,"IFN-γ, PBL + Cos7/A11 pulsed at 10^-7 M",[9],86 pg/mL
same,"IFN-γ, PBL + Cos7/A11 pulsed at 10^-8 M",[9],90 pg/mL
same,"IFN-γ, PBL + Cos7/A11 pulsed at 10^-9 M",[9],92 pg/mL
same,"IFN-γ, PBL + Cos7/A11 pulsed at 10^-10 M",[9],95 pg/mL
same,"IFN-γ, PBL + Cos7/A11 pulsed at 10^-11 M",[9],88 pg/mL
same,"IFN-γ, PBL + Cos7/A11 pulsed at 10^-12 M",[9],91 pg/mL
same,"IFN-γ, PBL + Cos7/A11 pulsed at 10^-13 M",[9],84 pg/mL
same,"IFN-γ, PBL + Cos7/A11 pulsed at 10^-6 M",[10],90 pg/mL
same,"IFN-γ, PBL + Cos7/A11 pulsed at 10^-7 M",[10],96 pg/mL
same,"IFN-γ, PBL + Cos7/A11 pulsed at 10^-8 M",[10],95 pg/mL
same,"IFN-γ, PBL + Cos7/A11 pulsed at 10^-9 M",[10],88 pg/mL
same,"IFN-γ, PBL + Cos7/A11 pulsed at 10^-10 M",[10],95 pg/mL
same,"IFN-γ, PBL + Cos7/A11 pulsed at 10^-11 M",[10],84 pg/mL
same,"IFN-γ, PBL + Cos7/A11 pulsed at 10^-12 M",[10],105 pg/mL
same,"IFN-γ, PBL + Cos7/A11 pulsed at 10^-13 M",[10],103 pg/mL
